From US8124087B2, “Methods of controlling bone loss by inhibiting DKK1” (Board of Trustees of the University of Arkansas, priority 2002, dated 2012)

Key:
[1] = system: multiple myeloma plasma cells; assay: Gene expression profiling of plasma cells before and after 48 hour in vivo drug treatment; parameters: species or system human; settings: 48 hour in vivo treatment of patients
Text: Following Ficoll-Hypaque gradient centrifugation, plasma cells obtained from the bone marrow were isolated from the mononuclear cell fraction by immunomagnetic bead selection using a monoclonal mouse anti-human CD138 antibody (Miltenyi-Biotec, Auburn, Calif.). More than 90 percent of the cells used for gene expression profiling were plasma cells, as shown by two-color flow cytometry using CD138^+/CD45^− and CD38^+/ CD45^− markers, the presence of cytoplasmic immunoglobulin light chains by immunocytochemistry, and morphology by Wright-Giemsa staining. Total RNA was isolated with RNeasy Mini Kit (Qiagen, Valencia, Calif.). Preparation of labeled cRNA and hybridization to U95Av2 microarrays containing approximately 10,000 genes (Affymetrix, Santa Clara, Calif.) was performed as previously described (Zhan et al., 2002; Zhan et al., 2003). RNA amplification was not required.
To see if multiple myeloma plasma cells also upregulate the genes in response to drugs used to treat this disease, gene expression profiling of multiple myeloma plasma cells was performed before and after 48 hour in vivo treatment with thalidomide (FIG. 33), ImiD (FIG. 34), PS-341 (FIG. 32), or dexamethasone (FIG. 35). […] In support of this notion, […] and FRZB were expressed at low to undetectable levels in 30 HMCL and several cases of extramedullary disease (FIG. 15).

C2C12 cells [2] = assay: OPG mRNA (qPCR) and protein (ELISA) in osteoblast cells; type: cell-based, mouse
Procedure: (§1) C2C12 cells were cultured in 6-well plates in DMEM with 10% FBS and maintained at subconfluence. MM cells (5×10^5/ml) were seeded on the C2C12 in the presence or absence of Wnt3a-CM or Cont-CM for indicated times. For coculture with primary cells, CD138 positive cells were cultured on of the C2C12 monolayer […] in the presence or absence of rWnt3a with and without anti-DKK1 antibody (R&D System) for 48 hours. Total RNA was isolated using TRIZOL reagent (Invitrogen). Supernatants were harvested for protein analysis.
(§2) Microtiter plates were coated with 50 μl of anti-DKK1 antibody (R&D Systems, Minneapolis, Minn.) according to manufacturer recommendations. Bone marrow serum (1:50) in dilution buffer was added and incubated overnight at 4° C. Plates were washed and incubated with biotinylated goat anti-human DKK1 IgG (R&D Systems, Minneapolis, Minn.) followed by streptavidin-horseradish peroxidase (Vector Laboratories), according to manufacturer recommendations. The concentrations of OPG and RANKL proteins in cultured supernatant were measured using the kits from according to manufacturer recommendations (R&D Systems, Minneapolis, Minn.).
(§3) One microgram of total RNA was reverse transcribed into total cDNA. Quantitative PCR (qPCR) was performed using an ABI Prism 7000 sequence detection system (Applied Biosystems, Foster City, Calif.). The reaction mixture contained 1 ml of cDNA, dedicated buffers with specific primers and probes (5′-labeled by 6-carboxy-fluorescein and 3′-labeled by 1-carboxy-teteramethyrhdamine), and DNA polymerase in a total 20 ml volume. […] Each cDNA sample was analyzed in triplicate in parallel with GAPDH as a control. Changes in mRNA concentration were determined by subtracting the CT (threshold cycle) of target gene from the CT of GAPDH (Δ=CT gene−CT GAPDH). The mean of Δ control was subtracted from the ΔSiLRP5/6 reaction (mean Δ control−ASiLRP5/6=e) The difference was calculated as 2^e by the ^2-ΔΔCT (Livak and Schmittgen, 2001).

MG63 cells = assay: OPG mRNA (qPCR) in osteoblast cells; type: cell-based, human; settings: data not shown
Procedure: One microgram of total RNA was reverse transcribed into total cDNA. Quantitative PCR (qPCR) was performed using an ABI Prism 7000 sequence detection system (Applied Biosystems, Foster City, Calif.). The reaction mixture contained […], dedicated buffers with specific primers and probes (5′-labeled by 6-carboxy-fluorescein and 3′-labeled by 1-carboxy-teteramethyrhdamine), and DNA polymerase in a total […]. Following 2 min incubation at 50° C. and 10 min incubation at 95° C. for denaturing, the reaction was subjected to 40-cycle amplification at 95° C. for 15 s to denature and at 60° C. for 1 min for annealing/extension. Each cDNA sample was analyzed in triplicate in parallel with GAPDH as a control. Changes in mRNA concentration were determined by subtracting the CT (threshold cycle) of target gene from the CT of GAPDH (Δ=CT gene−CT GAPDH). The mean of Δ control was subtracted from the ΔSiLRP5/6 reaction (mean Δ control−ASiLRP5/6=e) The difference was calculated as 2^e by the ^2-ΔΔCT (Livak and Schmittgen, 2001).

C2C12 cells [3] = assay: RANKL mRNA (qPCR) in osteoblast cells; type: cell-based, mouse; settings: 48 hours
Procedure: as §1, §3

Saos-2 cells [4] = assay: OPG mRNA (qPCR) and protein (ELISA) in osteoblast cells; type: cell-based, human
Procedure: as §2
as §3, with “Calif.).” for “Calif.). The reaction mixture contained 1 ml of cDNA, dedicated buffers with specific primers and probes (5′-labeled by 6-carboxy-fluorescein and 3′-labeled by 1-carboxy-teteramethyrhdamine), and DNA polymerase in a total 20 ml volume.”, “2001). […]” for “2001).”

C2C12 cells [5] = assay: Alkaline phosphatase (ALP) assay, BMP-2-induced differentiation; type: cell-based, mouse; settings: 72 hrs
Procedure: ALP activity was measured using ALP kit (Diagnostic Chemical Limited, Exton, Pa.) according to manufacturer instructions. Absorbance The of samples was determined with a Spectra Max340 Microplate Spectrophotometer (Molecular Devices, Sunnyvale, Calif.) at 402 nm. Cell lysates were analyzed for protein content with using the micro-BCA assay kit (Pierce, Rockford, Ill.).
Chemical synthesis of siRNA specific to LRP5/6, GFP, and control siRNA were purchased from Qiagen (Valencia, Calif.). The siRNA were transiently transfected into C2C12 using Lipofectamine according to manufacturer instructions (Invitrogen). RNA was isolated after 24, 48 or 72 hours then subjected to RT-PCR or qPCR for determination of efficacy of target gene silencing.

hFOB 1.19 cells = assay: GST-E-cadherin binding assay / immunoblot of uncomplexed b-catenin; type: cell-based, human; settings: lowest concentration tested (5 ng/ml)
Procedure: (§4) Cells were incubated in MEM, Wnt3a CM, control CM, or with recombinant Wnt3a for indicated times. For inhibition studies, cells were pretreated with purified recombinant Dkk1 at indicated concentrations or Dkk1 CM, Dkk2 CM, or bone marrow plasma with low or high concentrations of Dkk1 protein for one hour. Following treatment, cells were lysed as described (Qiang et al., 2002). Cell lysates were separated by SDS-PAGE and transferred to Immobilon polyvinylidene difluoride membranes (Millipore, Bedford, Mass.). Immunoblotting was performed using the indicated antibodies.
(§5) The GST-E-cadherin binding assay was performed as described (Bafico et al., 1998). Briefly, the beta-catenin binding site of E-cadherin as a GST-fusion protein was purified using GST beads. GST-E-cadherin was used to precipitate uncomplexed b-catenin present in 500 ng of cell lysate. Precipitated b-catenin was detected by immunoblotting using a b-catenin monoclonal antibody. Non-phosphorylated b-catenin was detected with a monoclonal antibody specific for b-catenin dephosphorylated at residues of 27-37 (Alexis, San Diego, Calif.).

Saos-2 cells [6] = assay: as above; type: cell-based, human
Procedure: as §4, §5
The GST-E-cadherin binding assay was performed as described (Bafico et al., 1998). […] Precipitated beta-catenin was detected by immunoblotting analysis using a b-catenin monoclonal antibody (Qiang et al., 2005).

C2C12 cells [7] = assay: as above; type: cell-based, mouse
Procedure: Cells were incubated in MEM, Wnt3a CM, control CM, or with recombinant Wnt3a for indicated times. For inhibition studies, cells were pretreated with purified recombinant Dkk1 at indicated concentrations or Dkk1 CM, Dkk2 CM, or bone marrow plasma with low or high concentrations of Dkk1 protein for one hour. […] Cell lysates were separated by SDS-PAGE and transferred to Immobilon polyvinylidene difluoride membranes (Millipore, Bedford, Mass.). Immunoblotting was performed using the indicated antibodies.
The beta-catenin binding site of E-cadherin as a GST-fusion protein was purified using GST beads. GST-E-cadherin was used to precipitate uncomplexed beta-catenin in 500 mg of cell lysate. Precipitated beta-catenin was detected by immunoblotting analysis using a b-catenin monoclonal antibody (Qiang et al., 2005).

C2C12 cells [8] = assay: TOPflash LEF/TCF luciferase reporter gene assay; type: cell-based; settings: mouse pre-osteoblasts
Procedure: Cells plated at 5×10^4 per well in a 12-well plate were transiently co-transfected with […] of either TOPflash, FOPflash (Korinek et al., 1997), or Cbfa-1-luc (kindly provided by Dr. Ying Zhang, NCI, NIH) and 50 ng of pSV-b-galactosidase vector to normalize for transfection efficiency using Lipofectamine according to manufacturer instructions (Invitrogen). Following transfection, cells were exposed to Wnt3a CM or control CM for 24 hr prior to luciferase assay. Luciferase activity was measured as previously described (Qiang et al., 2003).

C2C12 cells [9] = assay: Osteoblast differentiation assay (alkaline phosphatase), 5 days; type: cell-based, mouse; settings: 50 ng/ml BMP-2 + 50 ng/ml recombinant human DKK1, 5 days
Procedure: C2C12 mesenchymal precursor cells (American Type Tissue Culture, Reston, Va.) were cultured in DMEM (Invitrogen, Carlsbad, Calif.) supplemented with 10 percent heat-inactivated fetal calf serum. Alkaline phosphatase activity in C2C12 cells was measured as described (Gallea, et al., 2001; Spinella-Jaegle, et al., 2001). Cell lysates were analyzed for protein content using the micro-BCA assay kit (Pierce, Rockford, Ill.).

[10] = dose- and time-dependent, maximum reached

Molecule: O=C1CCC(N2C(=O)c3ccccc3C2=O)C(=O)N1 (stereo not shown) [thalidomide]
- DKK-1 and FRZB expression after drug treatment [1]: massively upregulated in many cases

Molecule: CC(C)C[C@H](NC(=O)[C@H](Cc1ccccc1)NC(=O)c1cnccn1)B(O)O [PS-341]
- DKK-1 and FRZB expression after drug treatment [1]: massively upregulated in many cases

B1: Wnt3a: recombinant Wnt3a (R&D Systems), canonical Wnt ligand (protein, UniProt P56704 19-352, looked up)
Protein Wnt-3a: SYPIWWSLAVGPQYSSLGSQPILCASIPGLVPKQLRFCRNYVEIMPSVAEGIKIGIQECQHQFRGRRWNCTTVHDSLAIFGPVLDKATRESAFVHAIASAGVAFAVTRSCAEGTAAICGCSSRHQGSPGKGWKWGGCSEDIEFGGMVSREFADARENRPDARSAMNRHNNEAGRQAIASHMHLKCKCHGLSGSCEVKTCWWSQPDFRAIGDFLKDKYDSASEMVVEKHRESRGWVETLRPRYTYFKVPTERDLVYYEASPNFCEPNPETGSFGTRDRTCNVSSHGIDGCDLLCCGRGHNARAERRREKCRCVFHWCCYVSCQECTRVYDVHTCK
- increase of OPG protein relative to controls (ELISA of supernatants) (C2C12 cells [2]): 2000 fold
- increase of OPG mRNA (C2C12 cells [2]; [10]): 40 fold
- increase of OPG mRNA (MG63 cells): 1.5 fold
- RANKL mRNA after Wnt3a (C2C12 cells [3]): significant decrease in RANKL mRNA
- increase of OPG protein relative to controls (ELISA of supernatants) (Saos-2 cells [4]): 4 fold
- increase of OPG mRNA (Saos-2 cells [4]; [10]): 2 fold
- ALP activity, factor alone (C2C12 cells [5]; DMEM with 2% horse serum): no effect

B2: recombinant human DKK1: recombinant Dickkopf-1 protein, soluble inhibitor of Wnt signaling (protein)
chain: TLNSVLNSNAIKNLPPPLGGAAGHPGSAVSAAPGILYPGGNKYQTIDNYQPYPCAEDEECGTDEYCASPTRGGDAGVQICLACRKRRKRCMRHAMCCPGNYCKNGICVSSDQNHFRGEIEETITESFGNDHSTLDGYSRRTTLSSKMYHTKGQEGSVCLRSSDCASGLCCARHFWSKICKPVLKEGQVCTKHRRKGSHGLEIFQRCYCGEGLSCRIQKDHHQASNSSRLHTCQRH
- Wnt3a-induced increase in OPG mRNA in presence of DKK1 (C2C12 cells [2]; 100 ng/ml of DKK1 in culture media): significantly inhibited
- RANKL mRNA decreased by Wnt3a, after DKK1 pretreatment (C2C12 cells [3]; 100 ng/ml DKK1 pretreatment): restored
- inhibition of Wnt3a-increased non-phosphorylated b-catenin (hFOB 1.19 cells): pronounced inhibition
- inhibition of Wnt3a-increased non-phosphorylated b-catenin (Saos-2 cells [6]; lowest concentration tested (5 ng/ml)): pronounced inhibition
- b-catenin level (pull-down assay) (Saos-2 cells [6]; recombinant DKK1 before Wnt3a): reduced
- concentration of maximal inhibition of Wnt3a-increased non-phosphorylated b-catenin (C2C12 cells [7]; pretreatment before Wnt3a): 50 ng/mL
- b-catenin level (pull-down assay) (C2C12 cells [7]; recombinant DKK1 before Wnt3a): reduced
- Wnt3a-induced TCF/LEF transcriptional activity in presence of Dkk1 (C2C12 cells [8]): completely attenuates
- BMP-2-induced ALP activity after Dkk1 pretreatment (C2C12 cells [5]; 100 ng/ml Dkk1, presence or absence of Wnt3a): significantly inhibited ALP activity
- alkaline phosphatase production with BMP-2 plus DKK1 (C2C12 cells [9]): not produced
